Assay results as given in US20240174733A1 (ACCELERON PHARMA, published 2024).

How the values were obtained:
[1] = molecular target: T1, ActRIIA-mFc (human, UniProt P27037 21-135); test: similar binding assay (Biacore)
T1 construct: also called RAP-011; sotatercept analog RAP-011; not shown: "minimal linker"; mouse Fc domain

[2] = molecular target: T1, ActRIIA-mFc; test: SPR (Biacore), ligand amine-coupled on CM5 chip, ActRIIA-mFc as analyte
Procedure: GDF11 or activin A were immobilized on a Biacore™ CM5 chip using standard amine-coupling procedure. ActRIIA-hFc and ActRIIA-mFc proteins were loaded onto the system, and binding was measured. […] Using a similar binding assay, ActRIIA-hFc was determined to have high to moderate affinity for other TGF-beta superfamily ligands including, for example, activin B, GDF8, BMP6, and BMP10. ActRIIA-mFc behaved similarly.

T1 sequence (P27037 21-135): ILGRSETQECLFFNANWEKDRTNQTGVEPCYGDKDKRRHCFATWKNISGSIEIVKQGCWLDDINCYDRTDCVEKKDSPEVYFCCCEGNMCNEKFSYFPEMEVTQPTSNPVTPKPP

B1: BMP10 (ligand, UniProt O95393 317-424, looked up)
chain: NAKGNYCKRTPLYIDFKEIGWDSWIIAPPGYEAYECRGVCNYPLAEHLTPTKHAIIQALVHLKNSQKASKACCVPTKLEPISILYLDKGVVTYKFKYEGMAVSECGCR
Does B1 bind [1]?
Result: binds

B2: GDF11 (ligand, UniProt O95390 299-407, looked up)
chain: NLGLDCDEHSSESRCCRYPLTVDFEAFGWDWIIAPKRYKANYCSGQCEYMFMQKYPHTHLVQQANPRGSAGPCCTPTKMSPINMLYFNDKQQIIYGKIPGMVVDRCGCS
notes: Immobilized on a Biacore CM5 chip by amine coupling
Does B2 bind [2]?
Result: binds
